# Results from article PMC7671035.
# Tests used:
# human CXCL11 (human) = human CXCL11 (human) (UniProt O14625); assay: ELISA
# LY3041658 (human) = assay: SPR
# human CXCL11 (human), sequence (O14625 22-94): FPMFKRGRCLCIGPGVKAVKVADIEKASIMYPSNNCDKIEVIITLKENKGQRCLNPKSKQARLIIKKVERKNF
# human CXCL11, sequence (O14625 22-94): as above
# human CXCL9, sequence (Q07325 23-125): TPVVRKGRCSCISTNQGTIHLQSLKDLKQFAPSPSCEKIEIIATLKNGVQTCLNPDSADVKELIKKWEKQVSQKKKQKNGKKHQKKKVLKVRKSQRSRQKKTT
fold shift in EC50 compared with the ELR+CXC chemokines (human CXCL11 (human)),Kd (LY3041658 (human)),Substance
200 fold,,LY3041658 (antibody)
,100 nM,human CXCL9 (from UniProt Q07325 23-125) (ligand)
,100 nM,human CXCL11 (from UniProt O14625 22-94) (ligand)
